Numbering of substitutions follows the chain as printed. In names and notes the source's numbering stands.
B1: A215L: ApPPO1 (SEQ ID NO: 1) variant (protein)
chain: MPFTHLKPLNRLLGSPRARHPHVAPQAVSVTNTSTTRPGGRSSAPGIPGDAEYDVVIVGAGISGLTTAQALAKQYSDAVPRLLVTEARDCVGGNIITRRDGGYQWEEGPNSFQPSDAVLRAAVDAGVADRLVLGDPKAPRYVYWGGRLRATPSGPDVLTFDLLSLWGKLRAGLGAAGFKAPLPEREESVKEFVTRNLGEEVFQRLIEPFCSGVYLGDPAKLSMKAAFGKVYDLEKGGGSIVGGVLALMKARKQKPPEPRPADLPPKPKGQTVGSFDKGLVTLPSAIAEELGDRVVTGWKLESIDRSGDRFQLTYDTPQGRKKVSARSVALTVPAYTAASLLESRFPKLGKALSSIYYPPVASVALSYPETAILPERLGSDGHLAGFGQLHPRTQGVTTLGTIYASSLFPGRVPEGKVLLLSYFGGATNTRVATMPHGEIVSQVDKDLRKMLIRSDAESPHTVNVTVWPRAIPQFNVGHTDLIQEAKDDLASQGWQGLHLGGNYVAGVALGKCMEAGYKQAAELASHVKSLAT
modifications: Synthetic (Protoporphyrinogen IX oxidase (ApPPO1) of Auxenochlorella protothecoides)
B2: L389T + Y422M: ApPPO1 (SEQ ID NO: 1) variant (protein)
chain: B1 chain with L215A, L389T, Y422M
modifications: Synthetic (Protoporphyrinogen IX oxidase (ApPPO1) of Auxenochlorella protothecoides)
B3: S362V + Y422I: ApPPO1 (SEQ ID NO: 1) variant (protein)
chain: B1 chain with L215A, S362V, Y422I
modifications: Synthetic (Protoporphyrinogen IX oxidase (ApPPO1) of Auxenochlorella protothecoides)
B4: A215C + Y422M: ApPPO1 (SEQ ID NO: 1) variant (protein)
chain: B1 chain with L215C, Y422M
modifications: Synthetic (Protoporphyrinogen IX oxidase (ApPPO1) of Auxenochlorella protothecoides)
B5: I402T + Y422M: ApPPO1 (SEQ ID NO: 1) variant (protein)
chain: B1 chain with L215A, I402T, Y422M
modifications: Synthetic (Protoporphyrinogen IX oxidase (ApPPO1) of Auxenochlorella protothecoides)
B6: V360I + Y422I: ApPPO1 (SEQ ID NO: 1) variant (protein)
chain: B1 chain with L215A, V360I, Y422I
modifications: Synthetic (Protoporphyrinogen IX oxidase (ApPPO1) of Auxenochlorella protothecoides)
B7: R140A + Y422M: ApPPO1 (SEQ ID NO: 1) variant (protein)
chain: B1 chain with R140A, L215A, Y422M
modifications: Synthetic (Protoporphyrinogen IX oxidase (ApPPO1) of Auxenochlorella protothecoides)
B8: R140A: ApPPO1 (SEQ ID NO: 1) variant (protein)
chain: B1 chain with R140A, L215A
modifications: Synthetic (Protoporphyrinogen IX oxidase (ApPPO1) of Auxenochlorella protothecoides)
B9: A215L + Y422M: ApPPO1 (SEQ ID NO: 1) variant (protein)
chain: B1 chain with Y422M
modifications: Synthetic (Protoporphyrinogen IX oxidase (ApPPO1) of Auxenochlorella protothecoides)
B10: V213C + Y422M: ApPPO1 (SEQ ID NO: 1) variant (protein)
chain: B1 chain with V213C, L215A, Y422M
modifications: Synthetic (Protoporphyrinogen IX oxidase (ApPPO1) of Auxenochlorella protothecoides)

Key:
ApPPO1 [1] = test: Herbicide tolerance test of ApPPO1 wild type and variants in PPO-deficient E. coli BT3(ΔPPO), growth on herbicide-containing LB agar; format: cell-based, Auxenochlorella protothecoides; settings: relative to ApPPO1 WT; for Herbicide tolerance, tiafenacil: up to 200 μM (FIGS. 7-12)
Description: Then, the extent of tolerance was evaluated.

ApPPO1 [2] = test: PPO enzyme activity of purified MBP-fused ApPPO1 wild type and variants; format: biochemical, Auxenochlorella protothecoides; settings: PPO enzyme activity relative to ApPPO1 wild type; MBP-fused protein
Description: Thus, PPO proteins of wild type and variants were expressed as fused to MBP and were used for experiments.
The following process for purification of PPO protein was performed in a 4° C. cold room. […] The column was washed with 3 column volumes of buffer and the presence of protein in the washing solution was examined. When the protein was no longer detected, the washing procedure was terminated. Then, the MBP-PPO protein was eluted with approximately 2 column volumes of buffer containing 20 mM maltose. The protein concentration of each eluent was determined and the elution was stopped when the protein was no longer detected. Ten microliter of each fraction was investigated for protein quantification and SDS-PAGE analysis. The highly pure fractions of PPO protein variants were used for the enzyme assay.
Since protoporphyrinogen IX, a substrate of PPO protein, was not commercially available, it was chemically synthesized in the laboratory. Overall process was performed in dark under nitrogen stream. […] of protoporphyrin IX was dissolved in 20 ml of 20% (v/v) EtOH, and stirred under dark condition for 30 minutes. The obtained protoporphyrin IX solution was put into a 15 ml screw tube in an amount of 800 μl, and flushed with nitrogen gas for 5 minutes. To this, 1.5 g of sodium amalgam was added and vigorously shaken for 2 minutes. The lid was opened to exhaust hydrogen gas in the tube. Thereafter, the lid was closed and incubated for 3 minutes. The protoporphyrinogen IX solution was filtered using syringe and cellulose membrane filter. To 600 μl of the obtained protoporphyrinogen IX solution, approximately 300 μl of 2M MOPS [3-(N-morpholino) propanesulfonic acid] was added to adjust pH to 8.0. To determine the enzyme activity of PPO protein, a reaction mixture was prepared with the following composition (based on 10 ml): 50 mM Tris-Cl (pH 8.0); 50 mM NaCl; 0.04% (v/v) Tween 20; 40 mM glucose (0.072 g); 5 units glucose oxidase (16.6 mg); and 10 units catalase (1 μl).
Hundred and eighty microliters of a reaction mixture […] were placed in 96 well plates and 20 μl of purified PPO proteins were added. After 50 μl of the mineral oil was layered, the reaction was initiated by adding the substrate, protoporphyrinogen IX solution, to a final concentration of 50 μM. The reaction proceeded at room temperature for 30 min and the fluorescence of protoporphyrin IX was measured using Microplate reader (Sense, Hidex) (excitation: 405 nm; emission: 633 nm). To calculate the PPO enzyme activity, the protoporphyrinogen IX solution was kept open in the air overnight to oxidize the solution. To this, 2.7 N HCl was added, and the absorbance at 408 nm was measured. A standard curve was generated using standard protoporphyrin IX, and PPO activity was measured by calibration of protoporphyrin IX using the standard curve of protoporphyrin IX.
Activities of variants were presented relatively compared to that of wild type.

[3] = dark, up to 100 μM (FIGS. 7-12)
[4] = dark, up to 400 μM (FIGS. 7-12)

Row | Molecule | Activity (%) (ApPPO1 [2]) | Herbicide tolerance, flumioxazin (ApPPO1 [1]; [3]) | Herbicide tolerance, tiafenacil (ApPPO1 [1]; dark) | Herbicide tolerance, sulfentrazone (ApPPO1 [1]; [4]) | other results
1 | B1 | 76 |  |  |  | Herbicide tolerance, pentoxazone (ApPPO1 [1]; light, up to 10 μM (FIG. 5)): ++ (10-99 fold higher tolerance); Herbicide tolerance, pyraflufenethyl (ApPPO1 [1]; light, up to 10 μM (FIG. 6)): +++ (100-999 fold higher tolerance); Herbicide tolerance, sulfentrazone (ApPPO1 [1]; light, up to 25 μM (FIG. 3)): +++ (100-999 fold higher tolerance); Herbicide tolerance, Fomesafen (ApPPO1 [1]; light, up to 25 μM (FIG. 4)): +++ (100-999 fold higher tolerance); Herbicide tolerance, acifluorfen (ApPPO1 [1]; light, up to 25 μM (FIG. 4)): +++ (100-999 fold higher tolerance); Herbicide tolerance, saflufenacil (ApPPO1 [1]; light, up to 100 μM (FIG. 2)): ++++ (1,000-9,999 fold higher tolerance); Herbicide tolerance, flumioxazin (ApPPO1 [1]; light, up to 200 μM (FIG. 3)): ++++ (1,000-9,999 fold higher tolerance)
2 | B2 | 15 |  |  |  | 
3 | B3 | 21 |  |  |  | 
4 | B4 | 58 | +++++ (more than 10,000 fold higher tolerance) | +++++ (more than 10,000 fold higher tolerance) | ++++ (1,000-9,999 fold higher tolerance) | 
5 | B5 | 21 |  |  |  | 
6 | B6 | 16 |  |  |  | 
7 | B7 | 29 | ++++ (1,000-9,999 fold higher tolerance) | ++++ (1,000-9,999 fold higher tolerance) | ++++ (1,000-9,999 fold higher tolerance) | 
8 | B8 | 88 |  |  |  | 
9 | B9 | 34 | +++++ (more than 10,000 fold higher tolerance) | +++++ (more than 10,000 fold higher tolerance) | ++++ (1,000-9,999 fold higher tolerance) | 
10 | B10 | 29 | +++ (100-999 fold higher tolerance) | +++++ (more than 10,000 fold higher tolerance) | ++ (10-99 fold higher tolerance) | 

Source: patent publication US20220042033A1, “COMPOSITION AND METHOD FOR CONFERRING AND/OR ENHANCING TOLERANCE AGAINST HERBICIDES BY USING VARIANTS OF PPO” (FarmHannong Co., Ltd., priority 2017, published 2022)
